{"source": "paper PMC8012802", "assay_in_all_cases": "SEC-MALS; MiniDAWN TREOS II with Superdex 200 10/300 increase, 20 mM Tris-HCl pH 8.0, 100 mM NaCl, 0.5 ml/min; monomer and 6-mer peaks", "key": {"[1]": {"target": "OrfG C-terminal subdomain (OrfG_(223–331): from Ala223 to Asp331) (Streptococcus thermophilus (ICESt3))"}, "[2]": {"target": "OrfG soluble domain (OrfG_(64–331): from Ser64 to Asp331) (Streptococcus thermophilus (ICESt3))"}, "[3]": {"target": "OrfG central domain (OrfG_(64–204): from Ser64 to Ala204) (Streptococcus thermophilus (ICESt3))"}}}
{"substance": "OrfG C-terminal subdomain (OrfG_(223–331): from Ala223 to Asp331) (domain or fragment)", "values": [{"measurement": "stoichiometry N", "setting": "[1]", "result": 6}]}
{"substance": "OrfG soluble domain (OrfG_(64–331): from Ser64 to Asp331) (domain or fragment)", "values": [{"measurement": "mass fraction of the 6-mer peak", "setting": "[2]", "result": 2.7, "unit": "%"}, {"measurement": "stoichiometry N", "setting": "[2]", "result": 6}]}
{"substance": "OrfG central domain (OrfG_(64–204): from Ser64 to Ala204) (domain or fragment)", "values": [{"measurement": "stoichiometry N", "setting": "[3]", "result": 6}]}
